# Source: PMC2275139
# Where a chain is given by its changes, count along the chain named. Read-outs that look alike come from different tables or passages of the source.
# B1: 16 bp probe (same center as 28E) (dsDNA)
# DNA 1: TAACTAACGAAAGGTA
# DNA 2: TACCTTTCGTTAGTTA
# B2: 24E (dsDNA)
# DNA 1: AACCTAACTAACGAAAGGTAGGTG
# DNA 2: CACCTACCTTTCGTTAGTTAGGTT
# B3: 28E (dsDNA)
# DNA 1: ACAACCTAACTAACGAAAGGTAGGTGAA
# DNA 2: TTCACCTACCTTTCGTTAGTTAGGTTGT
# Tests used:
# [1] = target: T1, IcaR wild type (Staphylococcus epidermidis ATCC 35984 …, UniProt Q5HKQ1 1-185); assay: EMSA
# T1 sequence: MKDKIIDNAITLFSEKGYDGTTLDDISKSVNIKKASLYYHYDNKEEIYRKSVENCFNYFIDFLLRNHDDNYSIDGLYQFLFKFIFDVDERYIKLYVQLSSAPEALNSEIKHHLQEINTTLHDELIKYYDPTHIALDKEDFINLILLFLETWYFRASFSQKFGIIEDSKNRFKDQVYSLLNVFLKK
# [2] = target: T1, IcaR wild type; assay: EMSA; remark: listed apart in the source
# [3] = target: T2, IcaR K33E (Staphylococcus epidermidis ATCC 35984 …, UniProt Q5HKQ1 1-185, K33E); assay: ITC
# T2 sequence: T1 sequence with K33E
binder,measurement,setting,value
B1,binding result,[1],no binding
B2,binding result,[2],binds
B3,binding result,[3],no binding
